Measured values taken from patent publication US20200230253A1.

Tests used:
[1] = target: mannose phosphate 6 receptor (M6PR), immobilized on a CM5 chip; experiment: SPR (BIACORE T200), M6PR immobilized on CM5 chip by amine coupling, analyte 200 nM to 12.5 nM in HBS-EP
[2] = target: mannose phosphate 6 receptor (M6PR), immobilized on a CM5 chip; experiment: SPR (BIACORE T200), M6PR immobilized on CM5 chip by amine coupling
[3] = target: mannose phosphate 6 receptor (M6PR), immobilized on a CM5 chip; experiment: SPR, M6PR immobilized; the reference itself
[4] = target: mannose phosphate 6 receptor (M6PR) expressed on HepG2 cells (human); experiment: cell-based or functional assay
[5] = target: mannose phosphate 6 receptor (M6PR), immobilized on a CM5 chip; experiment: SPR, M6PR immobilized; relative to iduronate-2-sulfatase

Row | kon [1] [M⁻¹ s⁻¹] | Kd [2] [µM] | koff [2] [s⁻¹] | relative binding affinity from KD (% of iduronate-2-sulfatase) [3] [%] | relative ka (% of iduronate-2-sulfatase) [3] [%] | relative kd (% of iduronate-2-sulfatase) [3] [%] | intracellular absorption activity (Vmax), HepG2 cells, 24 h at 37 C, ELISA of cell content [4] | relative binding affinity from KD (% of iduronate-2-sulfatase) [5] [%] | relative ka (% of iduronate-2-sulfatase) [5] [%] | relative kd (% of iduronate-2-sulfatase) [5] [%] | kon [2] [M⁻¹ s⁻¹] | intracellular absorption activity relative to iduronate-2-sulfatase [4] [%] | Molecule
1 | 136000 | 0.0291 | 0.00395 | 100 | 100 | 100 | 9.5 nM |  |  |  |  |  | iduronate-2-sulfatase (Elaprase manufactured by Shire) (from UniProt P22304 26-550) (enzyme)
2 |  | 0.0331 | 0.00307 |  |  |  | 10.8 ng/mL | 88 | 67 | 78 | 92000 | 81.4 | long-acting iduronate-2-sulfatase conjugate (protein, part only; not given: Immunoglobulin Fc and PEG linker, human, UniProt P22304 26-550, looked up, not shown: a dimerising Fc or GST, N-terminus linked through a 10 kDa polyethylene glycol linker (from ALD-PEG-ALD, reductive amination) to the N-terminal proline of one chain of the immunoglobulin Fc) SETQANSTTDALNVLLIIVDDLRPSLGCYGDKLVRSPNIDQLASHSLLFQNAFAQQAVCAPSRVSFLTGRRPDTTRLYDFNSYWRVHAGNFSTIPQYFKENGYVTMSVGKVFHPGISSNHTDDSPYSWSFPPYHPSSEKYENTKTCRGPDGELHANLLCPVDVLDVPEGTLPDKQSTEQAIQLLEKMKTSASPFFLAVGYHKPHIPFRYPKEFQKLYPLENITLAPDPEVPDGLPPVAYNPWMDIRQREDVQALNISVPYGPIPVDFQRKIRQSYFASVSYLDTQVGRLLSALDDLQLANSTIIAFTSDHGWALGEHGEWAKYSNFDVATHVPLIFYVPGRTASLPEAGEKLFPYLDPFDSASQLMEPGRQSMDLVELVSLFPTLAGLAGLQVPPRCPVPSFHVELCREGKNLLKHFRFRDLEEDPYLPGNPRELIAYSQYPRPSDIPQWNSDKPSLKDIKIMGYSIRTIDYRYTVWVGFNPDEFLANFSDIHAGELYFVDSDPLQDHNMYNDSQGGDLFQLLMP
